The test concerns the target wild-type cardiac actin (ACTC), filaments (UniProt P68032 1-377). Kind of test: co-sedimentation.

B1: N-terminal C0C2 fragment of cardiac myosin binding protein-C (cMyBP-C) (domain or fragment)
chain: MPEPGKKPVSAFNKKPRSAEVTAGSAAVFEAETERSGVMVRWQRDGSDITANDKYGLAAEGKRHTLTVRDASPDDQGSYAVIAGSSKVKFDLKVTEPAPPEKAESEVAPGAPEEVPAPATELEESVSSPEGSVSVTQDGSAAEHQGAPDDPIGLFLMRPQDGEVTVGGSIVFSARVAGASLLKPPVVKWFKGKWVDLSSKVGQHLQLHDSYDRASKVYLFELHITDAQTTSAGGYRCEVSTKDKFDSCNFNLTVHEAIGSGDLDLRSAFRRTSLAGAGRRTSDSHEDAGTPDFSSLLKKRDSFRRDSKLEAPAEEDVWEILRQAPPSEYERIAFQHGVEACHRPLKRLKGMKQDEKKSTAFQKKLEPAYQVNKGHKIRLTVELADPDAEVKWLKNGQEIQMSGSKYIFESVGAKRTLTISQCSLADDAAYQCVVGGEKCSTELFVKEP
The Kd is the constant that tells how readily two partners part at equilibrium. Higher therefore signals a looser complex. As usually defined, the stoichiometry N is the number of molecules, sites or subunits per partner or assembly. With B1, the Kd came out at 5.02 µM and the “stoichiometry N” value was found to be 0.76 mol/mol actin.

These data come from paper PMC4306385 (Archives of biochemistry and biophysics, 2014).
